Measurements taken from doi:10.1101/2023.08.14.553221 (bioRxiv, 2023).

Experiments:
[1] = molecular target: T1, Fibronectin (FN), full-length, isolated from human plasma (human, UniProt P02751-1); assay: microplate protein-binding assay
[2] = molecular target: T1, Fibronectin (FN), full-length, isolated …; assay: cross-linking
[3] = molecular target: T1, Fibronectin (FN), full-length, isolated …; assay: FN-fiber stretch assay

| Binder | binding result [1] | also measured |
| --- | --- | --- |
| short human tissue transglutaminase, aa 1-465 (short hrTG2, barrel 1 and 2 deletion mutant) (domain or fragment, Alexa Fluor 647 on primary amines) MAEELVLERCDLELETNGRDHHTADLCREKLVVRRGQPFWLTLHFEGRNYEASVDSLTFSVVTGPAPSQEAGTKARFPLRDAVEEGDWTATVVDQQDCTLSLQLTTPANAPIGLYRLSLEASTGYQGSSFVLGHFILLFNAWCPADAVYLDSEEERQEYVLTQQGFIYQGSAKFIKNIPWNFGQFEDGILDICLILLDVNPKFLKNAGRDCSRRSSPVYVGRVVSGMVNCNDDQGVLLGRWDNNYGDGVSPMSWIGSVDILRRWKNHGCQRVKYGQCWVFAAVACTVLRCLGIPTRVVTNYNSAHDQNSNLLIEYFRNEFGEIQGDKSEMIWNFHCWVESWMTRPDLQPGYEGWQALDPTPQEKSEGTYCCGPVPVRAIKEGDLSTKYDAPFVFAEVNADVVDWIQQDDGSVHKSINRSLIVGLKISTKSVGRDEREDITHTYKYPEGSSEEREAFTRANHLNKL | binds |  |
| short human TG2 (aa 1-465) pre-incubated with the irreversible inhibitor Z006 (domain or fragment) MAEELVLERCDLELETNGRDHHTADLCREKLVVRRGQPFWLTLHFEGRNYEASVDSLTFSVVTGPAPSQEAGTKARFPLRDAVEEGDWTATVVDQQDCTLSLQLTTPANAPIGLYRLSLEASTGYQGSSFVLGHFILLFNAWCPADAVYLDSEEERQEYVLTQQGFIYQGSAKFIKNIPWNFGQFEDGILDICLILLDVNPKFLKNAGRDCSRRSSPVYVGRVVSGMVNCNDDQGVLLGRWDNNYGDGVSPMSWIGSVDILRRWKNHGCQRVKYGQCWVFAAVACTVLRCLGIPTRVVTNYNSAHDQNSNLLIEYFRNEFGEIQGDKSEMIWNFHCWVESWMTRPDLQPGYEGWQALDPTPQEKSEGTYCCGPVPVRAIKEGDLSTKYDAPFVFAEVNADVVDWIQQDDGSVHKSINRSLIVGLKISTKSVGRDEREDITHTYKYPEGSSEEREAFTRANHLNKL | binds |  |
| human tissue transglutaminase (hrTG2, recombinantly produced in E.coli) (enzyme, Alexa Fluor 647 on primary amines (fiber stretch assay)) MAEELVLERCDLELETNGRDHHTADLCREKLVVRRGQPFWLTLHFEGRNYEASVDSLTFSVVTGPAPSQEAGTKARFPLRDAVEEGDWTATVVDQQDCTLSLQLTTPANAPIGLYRLSLEASTGYQGSSFVLGHFILLFNAWCPADAVYLDSEEERQEYVLTQQGFIYQGSAKFIKNIPWNFGQFEDGILDICLILLDVNPKFLKNAGRDCSRRSSPVYVGRVVSGMVNCNDDQGVLLGRWDNNYGDGVSPMSWIGSVDILRRWKNHGCQRVKYGQCWVFAAVACTVLRCLGIPTRVVTNYNSAHDQNSNLLIEYFRNEFGEIQGDKSEMIWNFHCWVESWMTRPDLQPGYEGWQALDPTPQEKSEGTYCCGPVPVRAIKEGDLSTKYDAPFVFAEVNADVVDWIQQDDGSVHKSINRSLIVGLKISTKSVGRDEREDITHTYKYPEGSSEEREAFTRANHLNKLAEKEETGMAMRIRVGQSMNMGSDFDVFAHITNNTAEEYVCRLLLCARTVSYNGILGPECGTKYLLNLNLEPFSEKSVPLCILYEKYRDCLTESNLIKVRALLVEPVINSYLLAERDLYLENPEIKIRILGEPKQKRKLVAEVSLQNPLPVALEGCTFTVEGAGLTEEQKTVEIPDPVEAGEEVKVRMDLLPLHMGLHKLVVNFESDKLKAVKGFRNVIIGPA |  | binding result [2]: binds |
| R1R2 peptide (collagen-mimicking peptide derived from the SFS FN-binding protein of Streptococcus equi) (peptide) peptide: GLNGENQKEPEQGERGEAGPPLSGLSGNNQGRPSLPGLNGENQKEPEQGERGEAGPP |  | binding result [3]: binds |
